Where “and” joins values, the source holds several entries; their conditions need not be identical. Identical values can stand only once. Values belong to the molecule of their own block, whether it stands above or below them.
What was measured:
[1] = molecular target: T1, PfPPase (Plasmodium falciparum, UniProt O77392); details: active site (P1 phosphate position), chains B and C; Se-Met protein crystallised with 1 mM PPi and 3 mM MgCl2
T1 construct: gene MAL3P6.3
T1 sequence (O77392 1-380): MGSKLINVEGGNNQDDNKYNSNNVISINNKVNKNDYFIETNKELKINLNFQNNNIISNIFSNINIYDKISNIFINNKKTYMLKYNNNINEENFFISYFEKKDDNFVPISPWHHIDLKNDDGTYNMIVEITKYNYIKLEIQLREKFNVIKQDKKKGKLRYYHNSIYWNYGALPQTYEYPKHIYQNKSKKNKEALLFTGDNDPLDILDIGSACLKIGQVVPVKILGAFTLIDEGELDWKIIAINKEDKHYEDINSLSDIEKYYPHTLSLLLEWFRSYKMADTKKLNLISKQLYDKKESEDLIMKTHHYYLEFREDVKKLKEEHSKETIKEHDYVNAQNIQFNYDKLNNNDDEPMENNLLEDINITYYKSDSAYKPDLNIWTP

[2] = molecular target: Toxoplasma gondii soluble inorganic pyrophosphatase (TgPPase) (Toxoplasma gondii); experiment: SEC; TgPPase in solution (Supplementary Figure 1b); the sentence names no method; gel filtration analysis is named in p-0022
[3] = molecular target: Plasmodium falciparum soluble inorganic pyrophosphatase (PfPPase), full length (Plasmodium falciparum); experiment: SEC; gel permeation chromatography on S-200 16/60; 30 mM HEPES-Na pH 7.2, 100 mM NaCl, 1 mM DTT; absorbance at 280 nm, compared with Mwt markers
[4] = molecular target: Plasmodium falciparum soluble inorganic pyrophosphatase (PfPPase), full length (Plasmodium falciparum); experiment: native gel or EMSA; blue native PAGE of purified recombinant PfPPase from E. coli
[5] = substrate: O=P(O)(O)OP(=O)(O)O; experiment: malachite green phosphate release assay; assay type: biochemical, Plasmodium falciparum; details: 3 mM Mg2+, pH 7.2, 37 °C, 100 mM NaCl, 1.4 nM enzyme, pH 7.2
Description: (§1) malachite green phosphate release assay on PfPPase

[6] = substrate: O=P(O)(O)OP(=O)(O)OP(=O)(O)O; experiment: malachite green phosphate release assay; assay type: biochemical, Plasmodium falciparum; details: 1 mM Zn2+, pH 7.0, 37 °C, 100 mM NaCl, pH 7.0
Description: as §1

[7] = substrate: Nc1ncnc2c1ncn2[C@@H]1O[C@H](COP(=O)(O)OP(=O)(O)OP(=O)(O)O)[C@@H](O)[C@H]1O; experiment: malachite green phosphate release assay; assay type: biochemical, Plasmodium falciparum; details: 1 mM Zn2+, pH 7.2, 37 °C, 100 mM NaCl, pH 7.2
Description: as §1

Molecule: O=P(O)(O)O [Pi]
X-ray crystal structure, 3.2 Å [1]: PfPPase active site showed electron density for only one Pi molecule

Molecule: Toxoplasma gondii soluble inorganic pyrophosphatase (TgPPase) (enzyme)
stoichiometry N [2]: 2

stoichiometry N [3]: 2 and 4 | stoichiometry N [4]: 2
Molecule: Plasmodium falciparum soluble inorganic pyrophosphatase (PfPPase), full length (enzyme)

B1: PfPPase (Plasmodium falciparum 3D7) (protein)
chain: T1 sequence (O77392 1-380)
notes: full length 1-380, pETM41, MBP-6xHis tag cleaved with TEV, E. coli BL21-CodonPlus; ~45 kDa, dimer; crystal protein Se-Met labelled
Km [5]: 10 ± 1.8 µM | kcat [5]: 266 ± 11.4 s⁻¹ | kcat/Km [5]: 2.66e+07 M⁻¹ s⁻¹ | Km [6]: 1.6 ± 0.3 µM | kcat [6]: 26.3 ± 3 s⁻¹ | kcat/Km [6]: 1.6e+07 M⁻¹ s⁻¹ | Km [7]: 64 ± 4.2 µM | kcat [7]: 6.3 ± 1.2 s⁻¹ | kcat/Km [7]: 90000 M⁻¹ s⁻¹
